From US20030180295A1, “Angiocidin: a Cys-Ser-Val-Thr-Cys-Gly specific tumor cell adhesion receptor” (Philadelphia Health and Education Corporation, priority 1999, published 2003)
Blank lines part the entries; values can stand above or below the substance they belong to. No end group written: not given here. *: point of attachment. Acm = CC(=O)NC*

What was measured:
[1] = molecular target: T1, TSP-1 (Homo sapiens, UniProt P07996); assay: Affinity Sensor System (resonant mirror biosensor): binding to TSP-1 coupled to cuvette; conditions: peptide alone, TSP-1 immobilized in cuvette
Description: (§1) Binding of undenatured (in the ligand blot protocol above, the receptor is denatured by SDS) recombinant receptor to TSP-1 was evaluated using the Affinity Sensor System, Cambridge, UK. This is an optical binding method that uses a cuvette to which either ligand or receptor is covalently coupled. A laser beam is used to detect bound proteins to the protein-derivatized cuvette surface. This method is highly sensitive and measures both the association and dissociation rate constants for ligand receptor interactions. The instrument assumes that one molecule of receptor binds one molecule of TSP-1 and calculates the dissociation constant (KD) according to the following relationships:
1) kass[R][TSP-1]=kdiss[R-TSP-1] at equilibrium, where kass is the second order rate constant for association and kdiss is the first order rate constant for dissociation
2) KD=[R][TSP-1]/[R-TSP-1]=kdiss/kass
3) [R-TSP-1]t=[R-TSP-1]eq[1-exp(-kont)], where the instrument response measure in arc seconds is proportional to receptor-TSP-1 complex R-TSP-1].
4) kon=kass[L]+kdiss where kon is the pseudo-first order rate constant for receptor TSP-1 interaction.
(§2) About 1 μg of TSP-1 was coupled to the cuvette through its amino groups to COOH groups on the cuvette surface. Unreacted groups on the cuvette surface were then blocked with ethanolamine and albumin. […] A dissociation constant of […] was calculated from a plot of the pseudo first order rate constant for association versus the concentration of the receptor, as shown in FIG. 7. Instrument response vs time readings shown in FIG. 8, where the instrument response is proportional to the concentration of receptor-TSP-1 complex, were used to plot the data points on FIG. 7.
(§3) […] The peptides used were Val-Cys-His-Ser-Lys-Thr-Arg (SEQ ID NO: 8), Val-Cys(Acm)-His-Ser-Lys-Thr-Arg (SEQ ID NO: 9), and Pro-His-Ser-Arg-Asn (SEQ ID NO: 10). The first two peptides are derived from the binding portion of the receptor, where it interacts with the Cys-Ser-Val-Thr-Cys-Gly (SEQ ID NO: 1) portion of the TSP-1 protein. The third peptide is a control.

[2] = test system: B16-F10 Melanoma Cells; assay: Cell adhesion to immobilized receptor peptides; assay type: cell-based, mouse; conditions: Example 12, FIG. 14
Description: For the adhesion assay, in a 96 well plate, duplicate wells were covered with either TSP-1 (40 μg/ml), fibronectin (40 μg/ml), or and 1% bovine serum albumin (BSA). The wells were dried out overnight and then blocked with BSA. 100 μl of a suspension containing 2×10^5 cells were plated in the protein covered wells and incubated at 37^□ C. for 20 minutes to 1 hour. The non-adherent cells were removed and the wells were washed with a Hepes buffer. The adherent cells were fixed with 2.5% glutaraldehyde for 10 minutes and stained with 0.2% Giemsa. The stain was washed off and the cells were counted in a field of 1 mm square. Cells adhering to BSA were considered background while cells adhering to fibronectin were the positive control.
The method of Example 12 was followed except the receptor peptides Val-Cys-His-Ser-Lys-Thr-Arg (SEQ ID NO: 8) and Val-Cys(Acm)-His-Ser-Lys-Thr-Arg (SEQ ID NO: […]) were immobilized on the plates. TSP-1 and fibronectin were also immobilized on plates, as well as negative control peptides (Ala-Ser-Val-Thr-Ala-Arg (SEQ ID NO: 11) and Pro-His-Ser-Arg-Asn (SEQ ID NO: 10)) and bovine serum albumin. […] This provides support for the theory that another protein may be associated with TSP-1 and its receptor, or that the receptor is released and rebound to the membrane of the cell by another protein.

[3] = molecular target: T2, receptor-TSP-1 complex (Homo sapiens, UniProt P55036, INS254GER); assay: Affinity Sensor System: peptide competition of receptor binding to immobilized TSP-1; conditions: 10 fold molar excess of peptide
T2 construct: Full length cDNA cloned in the PBK-CMV vector was used as a template; 6xHis (pTrcHisA leader) (N); made in house; host or cells: bacteria (pTrcHisA vector)
T2 sequence (P55036 with tags, fused parts or gaps INS254GER): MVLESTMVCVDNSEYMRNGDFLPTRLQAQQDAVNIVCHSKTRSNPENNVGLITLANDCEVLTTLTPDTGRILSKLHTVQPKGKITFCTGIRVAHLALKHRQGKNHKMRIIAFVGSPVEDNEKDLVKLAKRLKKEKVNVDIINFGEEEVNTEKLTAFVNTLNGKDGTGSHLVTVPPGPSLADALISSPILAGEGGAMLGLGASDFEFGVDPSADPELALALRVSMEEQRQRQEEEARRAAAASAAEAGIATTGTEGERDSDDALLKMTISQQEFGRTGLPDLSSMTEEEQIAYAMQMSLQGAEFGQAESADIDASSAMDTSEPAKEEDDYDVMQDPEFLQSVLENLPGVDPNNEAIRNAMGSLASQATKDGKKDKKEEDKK
Description: as §1, §2, §3

[4] = molecular target: T3, biotin-angiocidin complex binding to TSP-1 (Homo sapiens, UniProt P55036, INS254GER); assay: Biotin-avidin receptor binding assay: competition; conditions: for peptide competition of TSP-1 receptor binding: Example 25, peptide 1 mg/ml, FIG. 32; for competition of biotin-angiocidin binding to TSP-1: Example 23, FIGS. 29 and 30
T3 sequence (P55036 with tags, fused parts or gaps INS254GER): T2 sequence (P55036 with tags, fused parts or gaps INS254GER)
Description: In the following experiments, TSP-1 was covalently bound to a substrate, biotinylated angiocidin was added to the plate, and avidin-peroxidase was added to measure how much biotinylated angiocidin was attached to the TSP-1. The avidin-peroxidase was measured using a spectrophotometer at an absorbance of 450 nm.
Free angiocidin was added to the system to compete with the biotinylated angiocid in. […] Immobilized BSA was used as a negative control.
The TSP-1 peptide Cys-Ser-Val-Thr-Cys-Gly (SEQ ID NO: 1) was added to the system to compete with the TSP-1 on the plate for binding with the biotinylated angiocidin. The scrambled peptide Val-Cys-Thr-Gly-Ser-Cys (SEQ ID NO: 15) was used as a negative control and had no effect.
The avidin-biotin system discussed above was used to evaluate the competitive effect of various peptides on the binding of TSP-1 and angiocidin. […] The scrambled peptide Val-Cys-Thr-Gly-Ser-Cys-Gly (SEQ ID NO: 21) and the d-orientation peptide d-Cys-Ser-Val-Thr-Cys-Gly (SEQ ID NO: 22) were used as negative controls.

[5] = test system: Bovine aortic endothelial cells (BAEC); assay: ALAMAR BLUE cell viability assay; assay type: cell-based; conditions: for cell viability, angiocidin and fragments: Example 27, FIG. 34
Description: Bovine aortic endothelial cells (BAEC), human umbilical vein endothelial cells (HUVEC), fibroblast cells, A549 human lung carcinoma cells (A549), MDA-MB231 human breast carcinoma cells (MB231), MCF7 human breast carcinoma cells (MCF7) were treated with 37 μg/ml of receptor, or buffer alone, for 24 hours. Viability of the cells was measured using the ALAMAR BLUE™ assay, which measures the capacity of cells to metabolize the ALAMAR BLUE™ dye. The ALAMAR BLUE™ assay (available from Biosource International, Camarillo, Calif.) quantitatively measures the proliferation of cell lines and can establish the relative cytotoxicity of chemical agents. The assay incorporates a fluorometric/colorimetric growth indicator based on detection of metabolic activity. The system incorporates an oxidation-reduction (redox) indicator that both fluoresces and changes color in response to chemical reduction of growth medium resulting from cell growth. This causes the redox indicator to change from its oxidized, non-fluorescent, blue form to its reduced, fluorescent, red form. Data can be collected using either fluorescence-based instrumentation (530-560 nm excitation wavelength and 590 nm emission wavelength) or absorbance-based instrumentation (570 nm and 600 nm).
BAEC and BSM cells were treated with increasing concentrations of angiocidin (0, 0.625, 1.25, 2.5, 5, 15, 26 and 37 μg/ml) for 24 hours. Cell viability was measured using the ALAMAR BLUE Tm assay. […] In contrast, BSM cells are unaffected.
The methods of Example 21 were followed, except BAEC cells were used. Additionally, TSP-1 was added at both 20 μg/ml and 5 μg/ml.
As discussed in Example 19 above, angiocidin was added to BAEC cells. Fragments of angiocidin were added as well. […] GST was used as a negative control. V36-R42, the active site of the antisecretory factor, had no effect, illustrating that angiocidin plays a different role from antisecretory factor.
Bovine aortic endothelial cells (BAEC) were cultured overnight in serum-free media containing either 37 μg/ml his-tagged angiocidin or his-tagged GST. Both angiocidin and GST were expressed in bacteria transformed with the pTrcHisA expression vector and purified on nickel affinity chromatography under non-denaturing conditions. Viability was measured by the ALAMAR BLUE™ assay.
This study examined the effect of anti-angiocidin antibody on angiocidin-mediated inhibition of BAEC viability. BAEC were cultured overnight in serum-free media containing either 5 μg/ml angiocidin, 5 μg/ml angiocidin plus 100 μg/ml control IgG, or 5 μg/ml angiocidin plus 100 μg/ml anti-angiocidin IgG. Viability was measured using the ALAMAR BLUE™ assay, described above.
The endothelial cells (BAEC) were incubated overnight 37 μg/ml of the angiocidin, fragments, and GST. Viability was measured using the ALAMAR BLUE™ assay.

[6] = molecular target: T1, TSP-1; assay: Optical binding of angiocidin fragments to TSP-1 derivatized cuvette; conditions: test proteins at 10 nm in PBS buffer
Description: This study examines the amino terminal (Met1-Lys132) and carboxy terminal (IIe248-Lys380) portions of angiocidin (SEQ ID NOS: 24 and 25, respectively). The binding of undenatured recombinant angiocidin fragments was compared to full length angiocidin. GST was used as a negative control. Binding was evaluated using an optical binding method that uses a cuvette to which TSP-1 is covalently coupled. A laser beam was used to detect whether the test protein (fragments, angiocidin, or GST) is bound to the TSP-1 derivatized cuvette surface. The cuvette was derivatized with 1 μg of TSP-1. The cuvette surfaces were blocked with a 1% BSA solution to prevent nonspecific binding. The test proteins were added at a concentration of […] in a PBS buffer.

T1 sequence (P07996 19-1170): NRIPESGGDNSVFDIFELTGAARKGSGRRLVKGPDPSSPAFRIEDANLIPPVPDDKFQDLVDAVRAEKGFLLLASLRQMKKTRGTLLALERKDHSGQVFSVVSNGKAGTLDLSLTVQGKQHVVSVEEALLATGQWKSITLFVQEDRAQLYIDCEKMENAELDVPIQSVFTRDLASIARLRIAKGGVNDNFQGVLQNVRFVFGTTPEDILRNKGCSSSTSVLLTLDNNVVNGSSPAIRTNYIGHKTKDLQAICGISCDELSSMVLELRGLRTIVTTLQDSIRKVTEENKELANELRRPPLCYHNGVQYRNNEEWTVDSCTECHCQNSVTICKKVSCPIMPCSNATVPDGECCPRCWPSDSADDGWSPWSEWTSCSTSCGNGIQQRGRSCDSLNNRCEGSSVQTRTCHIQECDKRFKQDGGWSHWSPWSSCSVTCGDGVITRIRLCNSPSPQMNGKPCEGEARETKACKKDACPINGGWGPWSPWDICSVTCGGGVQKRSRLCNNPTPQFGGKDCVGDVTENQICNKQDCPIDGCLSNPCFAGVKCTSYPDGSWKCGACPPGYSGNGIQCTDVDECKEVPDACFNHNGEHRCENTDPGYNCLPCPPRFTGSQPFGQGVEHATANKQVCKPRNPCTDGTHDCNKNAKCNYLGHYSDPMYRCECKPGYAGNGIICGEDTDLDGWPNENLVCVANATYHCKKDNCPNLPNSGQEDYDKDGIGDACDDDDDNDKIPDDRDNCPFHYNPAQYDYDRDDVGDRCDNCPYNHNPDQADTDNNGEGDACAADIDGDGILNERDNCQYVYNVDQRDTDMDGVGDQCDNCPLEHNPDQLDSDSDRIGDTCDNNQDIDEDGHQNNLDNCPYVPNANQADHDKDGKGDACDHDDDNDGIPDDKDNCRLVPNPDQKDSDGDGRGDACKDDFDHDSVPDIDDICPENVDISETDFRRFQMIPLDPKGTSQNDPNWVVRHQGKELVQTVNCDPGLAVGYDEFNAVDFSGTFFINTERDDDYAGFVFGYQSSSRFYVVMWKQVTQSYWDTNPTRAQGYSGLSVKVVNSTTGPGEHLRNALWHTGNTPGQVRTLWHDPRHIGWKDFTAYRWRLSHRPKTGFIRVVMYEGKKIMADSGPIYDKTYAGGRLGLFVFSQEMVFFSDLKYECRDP

Substance: Val-Cys(Acm)-His-Ser-Lys-Thr-Arg (VC(Acm)HSKTR)
direct binding to immobilized TSP-1 [1]: bind directly to the immobilized TSP-1 | cell adhesion to immobilized peptide [2]: cause the cells to adhere to the plates, with similar affinity to the positive controls fibronectin and TSP-1

Substance: CSVTCG (cysteine pairing not given here) [Cys-Ser-Val-Thr-Cys-Gly (SEQ ID NO: 1), TSP-1 peptide]
competition of biotin-angiocidin binding to TSP-1 [4]: effectively competed with TSP-1 for the biotin-angiocidin complex | peptide competition of TSP-1 receptor binding [4]: effectively inhibited binding

Substance: V36-R42: the active site of the antisecretory factor (VCHSKTR; UniProt P55036 36-42, looked up, fragment) [reference compound]
cell viability, angiocidin and fragments [5]: had no effect

Substance: Pro-His-Ser-Arg-Asn (PHSRN) [Pro-His-Ser-Arg-Asn (SEQ ID NO: 10), negative control peptide, reference compound]
direct binding to immobilized TSP-1 [1]: did not

Substance: KVWVLPI
peptide competition of TSP-1 receptor binding [4]: inhibited the binding

Continued, in another order:

extent of receptor binding, % of buffer control [3]: 88%
Substance: Val-Cys(Acm)-Thr-Gly-Ser-Cys(Acm) (VC(Acm)TGSC(Acm)) [scrambled peptide]

peptide competition of TSP-1 receptor binding [4]: inhibited binding
Substance: d-Gly-Cys(Acm)-Thr-Val-Ser-Cys(Acm) (GCTVSC; not fully specified (residues 2, 3, 4, 5, 6); printed as d-Gly-Cys(Acm)-Thr-Val-Ser-Cys(Acm); cysteine pairing not given here; also: d- prefix stated for the peptide (mirror image, D-orientation)) [mirror image acetylated peptide]

competition of biotin-angiocidin binding to TSP-1 [4]: had no effect
Substance: VCTGSC (cysteine pairing not given here) [Val-Cys-Thr-Gly-Ser-Cys (SEQ ID NO: 15), scrambled peptide, negative control]

binding to TSP-1 derivatized cuvette [6]: show no binding activities
Substance: carboxy terminal fragment: carboxy terminal (IIe248-Lys380) portion of angiocidin (SEQ ID NO: 25)
anti-endothelial activity compared to angiocidin ([5]; 37 μg/ml, overnight): had activity levels similar to the negative control | cell viability, angiocidin and fragments [5]: did not affect cell viability
